{"source": "paper PMC9678781", "about": "(The Journal of Biological Chemistry, 2022)", "binders": {"B1": {"name": "B9-scFv displayed on the 293T cell surface (pBovShow) (scFv)", "VH": "QVQLRESGPSLVKPSQTLSLTCTASGFSLSDKAVGWVRQAPGKALEWLGGIDTGGSTGYNPGLKSRLSITKDNSKSQISLSVSSVTTEDSATYYCTTVHQRDSCPYDSSHSQYCSYGWSCGVYNCRPAVWYRYGSCGTCDNLFSYVDAWGQGLLVTVSS", "VL": "QAVLNQPSSVSGSLGQRVSITCSGSSSNVGNGYVSWYQLIPGSAPRTLIYGDTSRASGVPDRFSGSRSGNTATLTISSLQAEDEADYFCASAEDSSSNAVFGSRTTLTVL"}}, "key": {"[1]": {"molecular_target": "SARS-CoV-2 Spike S1 subdomain (aa 2-682), 8xHis-tagged (SARS-CoV-2 Wuhan-Hu-1, UniProt P0DTC2)", "test": "flow cytometry on cells", "settings": "one partner purified"}, "[2]": {"molecular_target": "SARS-CoV-2 Spike S2 subdomain (aa 686-1211), 8xHis-tagged (SARS-CoV-2 Wuhan-Hu-1, UniProt P0DTC2)", "test": "flow cytometry on cells", "settings": "one partner purified"}}}
{"binder": "B1", "values": [{"measurement": "binding result", "setting": "[1]", "value": "binds"}, {"measurement": "binding result", "setting": "[2]", "value": "no binding (tested: 2 μM)"}]}
